In the DeepSol protein solubility set:

Assay: soluble on expression in E. coli; label from the status in PepcDB or PDB records

Row | Sequence | soluble on expression in E. coli
1 | MAQQTNVAGQKTEKQRKAPFRADHVGSLLRSVPVKEARQKKAAGEMTAEQLRDIENQEITRIVEKQKEIGLDVVTDGEFRRSWWHYDFLEGLDGVEPFIPAEGIQFHNTKTKARSIKVTGKLDFTSHPALGDYQFLHEIAGNATPKLTIPSPNMLFFGEKADKGIYDDQEEYFHDMAQAYKKAIKAFYDAGCRYLQLDDTSWSLFFEDKGREVVRALGGDPETLPAIFAKTINDAVADRPDDLTITMHICRGNFRSTWAASGGYDAVAETILDGLNLDGLFLEYDDDRSGNFDPLRFVKRKDLQIVLGLITSKYGELENPEDVNAVSMKPRVLSAWTSYALEHHHHHH | not soluble
2 | MAQRLDGARFRYLNEQLYSGPSSAAQRLFQEDPEAFLLYHRGFQSQVKKWPLQPVDRIARDLRQRPASLVVADFGCGDCRLASSIRNPVHCFDLASLDPRVTVCDMAQVPLEDESVDVAVFCLSLMGTNIRDFLEEANRVLKPGGLLKVAEVSSRFEDVRTFLRAVTKLGFKIVSKDLTNSHFFLFDFQKTGPPLVGPKAQLSGLQLQPCLYKRR | soluble
3 | MAQTDKPTCIPPELPKMLKEFAKAAIRVQPQDLIQWAADYFEALSRGETPPVRERSERVALCNRAELTPELLKILHSQVAGRLIIRAEELAQMWKVVNLPTDLFNSVMNVGRFTEEIEWLKFLALACSALGVTITKTLKIVCEVLSCDHNGGSPRIPFSTFQFLYTYIAKVDGEISASHVSRMLNYMEQEVIGPDGIITVNDFTQNPRVQLE | soluble
4 | MAREATIARTTNETSIQLSLSLDGEGKAELETGVPFLTHMLDLFAKHGQFDLYIEAKGDTHIDDHHTTEDIGICLGQAIKEALGDKKGIKRYGNAFVPMDDALAQVVIDLSNRPHFEFRGEFPATKVGAFDVELVHEFLWKLALEARMNLHVIVHYGRNTHHMIEAVFKALGRALDEATMIDPRVKGVPSTKGML | not soluble
5 | MARIFTYPLARKRIRMHKPDDKQYDATYFTRWYRDAGLADPARLRRKVALAVAQAEYYLERPIRTVLDVGCGEAAWRAPLLALRPKLQYLGFDSSEYAVQRYGRSRQIHPARFGDFAWLRPCAPVDLLICSDVLHYVPTREFNQGLPGLAEMCAGVAFLETFAEEDAFEGDHEGFQARPARWYRRRFASVGFTALGSHCWLSPQLRGETAALEHS | soluble
6 | MARIIVVTSGKGGVGKTTSSAAIATGLAQKGKKTVVIDFDIGLRNLDLIMGCERRVVYDFVNVIQGDATLNQALIKDKRTDNLYILPASQTRDKDALTKEGVEKVLNDLGEMNFEFVVCDSPAGIESGALMALYFADEAVITTNPEVSSVRDSDRILGILSSKSRRAENSQEPIKEHLLLTRYNPGRVNRGDMLSMEDVLDILRIPLVGVIPEDQSVLRASNQGEPVILDKESDAGKAYEDTVDRLLGEERPFRFVEEEKKGFLKRLFGG | not soluble
7 | MARKKKTRRITDIMPIRKADKKIDITKARSGKKLTCYELDAKAREDKKKRKHKGLASGSRHSAVEEKANKLQNEIKDPKIGSKKKIPLVVEFVNKPEKGQVIPVIKQVKKQDPMKELENLENNEILNELLDALDAGKTISKSDQQFVDECLDRISELMEELGIEDEDESEDDLYRTFERMDINQFR | not soluble
8 | MARLAAFDMDGTLLMPDHHLGEKTLSTLARLRERDITLTFATGRHALEMQHILGALSLDAYLITGNGTRVHSLEGELLHRDDLPADVAELVLYQQWDTRASMHIFNDDGWFTGKEIPALLQAFVYSGFRYQIIDVKKMPLGSVTKICFCGDHDDLTRLQIQLYEALGERAHLCFSATDCLEVLPVGCNKGAALTVLTQHLGLSLRDCMAFGDAMNDREMLVSVGSGFIMGNAMPQLRAELPHLPVIGHCRNQAVSHYLTHWLDYPHLPYSPE | soluble
9 | MARLFTLSESKYYLMALDAGTGSIRAVIFDLEGNQIAVGQAEWRHLAVPDVPGSMEFDLNKNWQLACECMRQALHNAGIAPEYIAAVSACSMREGIVLYNNEGAPIWACANVDARAAREVSELKELHNNTFENEVYRATGQTLALSAIPRLLWLAHHRSDIYRQASTITMISDWLAYMLSGELAVDPSNAGTTGLLDLTTRDWKPALLDMAGLRADILSPVKETGTLLGVVSSQAAELCGLKAGTPVVVGGGDVQLGCLGLGVVRPAQTAVLGGTFWQQVVNLAAPVTDPEMNVRVNPHVIPGMVQAESISFFTGLTMRWFRDAFCAEEKLIAERLGIDTYTLLEEMASRVPPGSWGVMPIFSDRMRFKTWYHAAPSFINLSIDPDKCNKATLFRALEENAAIVSACNLQQIADFSNIHPSSLVFAGGGSKGKLWSQILADVSGLPVNIPVVKEATALGCAIAAGVGAGIFSSMAETGERLVRWERTHTPDPEKHELYQDSRDKWQAVYQDQLGLVDHGLTTSLWKAPGL | not soluble
